Earlier results, collected in paper PMC7855784.

Target: HER2 ECD (Homo sapiens) (UniProt P04626)

Kd: 7.3 nM
Substance: PEPD (from UniProt P12955)
